According to patent US20130109846A1 (published 2013):
Substitutions are numbered along the chain they refer to.

B1: 1h-203 (other)
VL: DIQMTQSPSSLSASVGDRVTITCRASQPIGSVLAWYQQKPGKAPKLLIYFSSILQSGVPSRFSGSGSGTDFTLTISSLQPEDFATYYCQQALRSPFTFGQGTKVEIKR
B2: 1h-207 (other)
VL: B1 VL with P28Y, S31T, V32S, F50H, I53G, A91T, L92A, R93L, S94R
B3: 1h-80 (other)
VL: B1 VL with P28R, V32N, F50W, S51A, I53L, A91T, L92R, R93S, S94A
B4: 1h-93 (other)
VH: EVQLLESGGGLVQPGGSLRLSCAASGFTFPLYEMAWVRQAPGKGLEWVSSIMSNGIRTYYADSVKGRFTISRDNSKNTLYLQMNSLRAEDTAVYYCAKRKSSSSRTVFDYWGQGTLVTVSS
B5: 1h-93-2 (other)
VH: B4 VH with K100E
B6: 1h-93-204 (other)
VH: B4 VH with P30Y, L31T, Y32A, K98R, K100E
B7: 1h-93-201 (other)
VH: B4 VH with P30S, L31V, Y32S, K98R, K100E
B8: 1h-93-1 (other)
VH: B4 VH with I56T, K100E
B9: 1h-30 (other)
VH: EVQLLESGGGLVQPGGSLRLSCAASGFTFAHYHMGWVRQAPGKGLEWVSWIPADGLRTYYADSVKGRFTISRDNSKNTLYLQMNSLRAEDTAVYYCAKYEGAFDYWGQGTLVTVSS
B10: 1h-37 (other)
VH: EVQLLESGGGLVQPGGSLRLSCAASGFTFGTYKMVWVRQAPGKGLEWVSSIGPGGLDTYYADSVKGRFTISRDNSKNTLYLQMNSLRAEDTAVYYCAKSWMTLPITGFDYRGQGTLVTVSS
B11: 1h-18-1 (other)
VL: DIQMTQSPSSLSASVGDRVTITCRASQYIGTSLNWYQQKPGKAPKLLTYQASFLQSGVPSRFSGSGSGTDFTLTISSLQPEDFATYYCQQLALRPMTFGQGTKVEIKR
B12: 1h-18-3 (other)
VL: B11 VL with Q50R, F53L
B13: 1h-18-6 (other)
VL: B11 VL with T48I, F53L, S67Y
B14: 1h-18-5 (other)
VL: B11 VL with F53L, L93M, R108W
B15: 1h-29 (other)
VH: EVQLLESGGGLVQPGGSLRLSCAASGFTFEDYDMNWVRQAPGKGLEWVSHIDRGGTLTYYADSVKGRFTISRDNSKNTLYLQMNSLRAEDTAVYYCAKSTLMGFDYWGQGTLVTVSS
B16: 1h-116 (other)
VL: DIQMTQSPSSLSASVGDRVTITCRASQSIYPFLEWYQQKPGKAPRLLIYFTSRLQSGVPSRFSGSGSGTDFTLTISSLQPEDFATYYCQQNATNPATFGQGTKVEIKR
B17: 1h-239-9 (other)
VL: B16 VL with R45K, Q89L, A92V
B18: 1h-239 (other)
VL: B16 VL with R45K
B19: 1h-239-851 (other)
VL: B16 VL with Q27R, S28N, R45K, Q89L, A92V, G99S
B20: 1h-239-871 (other)
VL: B16 VL with R45K, Q89L, A92V, T93A, G99S
B21: 1h-239-838 (other)
VL: B16 VL with R24Q, R45K, Q55A, S56R, Q89L, A92V, G99S, K103R
B22: 1h-239-824 (other)
VL: B16 VL with R45K, Q55R, S56Q, Q89L, A92V, G99S
B23: 1h-239-840 (other)
VL: B16 VL with R45K, T51A, Q55A, Q89L, A92V, G99S
B24: 1h-239-857 (other)
VL: B16 VL with R45K, Q55A, S56A, Q89L, A92V, T97A, G99S
B25: 1h-239-815 (other)
VL: B16 VL with S28P, Y30W, R45K, Q89L, A92V, G99S
B26: 1h-239-847 (other)
VL: B16 VL with R45K, Q55A, S56Y, Q89L, A92V, G99S, K107R
B27: 1h-239-817 (other)
VL: B16 VL with Q27K, S28P, R45K, Q89L, A92V, G99S
B28: 1h-239-859 (other)
VL: B16 VL with R45K, T51S, R53M, Q55A, Q89L, A92V, G99S
B29: 1h-239-804 (other)
VL: B16 VL with R45K, Q89L, A92V, T93S, N94M, G99S
B30: 1h-239-833 (other)
VL: B16 VL with R45K, Q55R, S56A, Q89L, A92V, G99S
B31: 1h-239-816 (other)
VL: B16 VL with Q27R, S28T, R45K, Q89L, A92V, G99S
B32: 1h-239-870 (other)
VL: B16 VL with R45K, Q89L, A92V, T93M, N94M, G99S
B33: 1h-239-856 (other)
VL: B16 VL with R45K, Q55R, S56H, Q89L, A92V, G99S
B34: 1h-239-849 (other)
VL: B16 VL with R45K, R53K, Q55T, S56R, T69A, S77N, Q89L, A92V, G99S
B35: 1h-239-809 (other)
VL: B16 VL with Q27R, S28P, Y30W, R45K, Q89L, A92V, G99S
B36: 1h-239-869 (other)
VL: B16 VL with R45K, Q89L, A92V, T93Q, N94M, G99S
B37: 1h-239-828 (other)
VL: B16 VL with R45K, Q55R, S56E, Q89L, A92V, G99S
B38: 1h-239-837 (other)
VL: B16 VL with R45K, Q55A, Q89L, A92V, G99S
B39: 1h-239-819 (other)
VL: B16 VL with S28A, Y30W, R45K, Q89L, A92V, G99S
B40: 1h-239-829 (other)
VL: B16 VL with R45K, T51S, Q55A, Q89L, A92V, G99S
B41: 1h-239-832 (other)
VL: B16 VL with R45K, R53Y, Q55R, S56E, Q89L, A92V, G99S
B42: 1h-239-807 (other)
VL: B16 VL with Q27R, S28A, Y30W, R45K, Q89L, A92V, G99S
B43: 1h-238 (other)
VL: DIQMTQSPSSLSASVGDRVTITCRASQHINASLGWYQQKPGKAPKLLIYWASQLQSGVPSRFSGSGSGTDFTLTISSLQPEDFATYYCQQMVRTPFTFGQGTKVEIKR
B44: 1h-99 (other)
VH: EVQLLESGGGLVQPGGSLRLSCAASGFTFDSANMTWVRQAPGKGLEWVSWIDDTGTQTYYADSVKGRFTISRDNSKNTLYLQMNSLRAEDTAVYYCAKSPFGPLYGFDYWGQGTLVTVSS

molecular target: human CD28 (human, UniProt P10747 19-220); assay: cell-based or functional assay

| Luciferase assay (EC50) | MLR assay (EC50) | Binder |
| --- | --- | --- |
| 0.88 µM |  | B1 |
| 2.6 µM |  | B2 |
| 0.685 µM | 2 µM | B3 |
| 2.8 µM | 3.2 µM | B4 |
| 0.383 µM | 0.83 µM | B5 |
| 0.176 µM | 1.2 µM | B6 |
| 0.182 µM | 0.018 µM | B7 |
| 0.493 µM | 0.545 µM | B8 |
| 1.2 µM |  | B9 |
|  | 1.9 µM | B10 |
| 5.4 µM |  | B11 |
| 1 µM |  | B12 |
| 1.4 µM |  | B13 |
| > 7 µM |  | B14 |
| > 7 µM |  | B15 |
| 2.5 µM | 2.4 µM | B16 |
| 0.027 µM |  | B17 |
| 1.3 µM |  | B18 |
| 0.005 µM | 0.004 µM | B19 |
|  | 0.003 µM | B20 |
| 0.004 µM | 0.003 µM | B21 |
| 0.009 µM | 0.006 µM | B22 |

| Luciferase assay (EC50) | MLR assay (EC50) | Binder |
| --- | --- | --- |
| 0.009 µM | 0.01 µM | B23 |
| 0.003 µM | 0.001 µM | B24 |
| 0.01 µM | 0.006 µM | B25 |
| 0.008 µM | 0.005 µM | B26 |
| 0.007 µM | 0.009 µM | B27 |
| 0.005 µM | 0.004 µM | B28 |
| 0.005 µM | 0.003 µM | B29 |
| 0.008 µM | 0.007 µM | B30 |
| 0.011 µM | 0.013 µM | B31 |
|  | 0.003 µM | B32 |
| 0.003 µM | 0.001 µM | B33 |
| 0.013 µM | 0.01 µM | B34 |
| 0.006 µM | 0.004 µM | B35 |
|  | 0.002 µM | B36 |
| 0.008 µM | 0.014 µM | B37 |
| 0.009 µM | 0.014 µM | B38 |
| 0.013 µM | 0.011 µM | B39 |
| 0.01 µM | 0.011 µM | B40 |
| 0.012 µM | 0.011 µM | B41 |
| 0.007 µM | 0.006 µM | B42 |
| 0.775 µM |  | B43 |
|  | 2.2 µM | B44 |
